The source of these data is the supplement of paper PMC7125110.

± gives the standard error. For some of these results: Fewer inactive variants are shown than the library holds. Where only a bound is given, the exact number is not on record here.

B1: glmS ribozyme (parent)
chain: AUAAAAGCGCCAGAACUACAGAAAUGUAGUUGACGAGGAGGAGGUUUAUCGAAUUUUCGGCGGAUGCCUCCAAA

Details in all cases: with glucosamine-6-phosphate
Variants of B1 are the subject of data set [1]. The experiment in a line: kcat; higher = faster cleavage; RNA array. An outline of the steps:
(§1)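 Sequenced MiSeq chips were the platform: E. coli RNA polymerase transcribed barcoded ribozyme variants on them in situ, and a hybridised Cy3 probe tracked these at 37 °C. After glucosamine-6-phosphate (40 μM to 10 mM) in HEPES/KCl/Mg(OAc)2 buffer was flowed in, tiles were imaged over ~14 h. Signals normalised to baseline and to non-cleaving reference variants were reduced to per-tile medians and fit to one- or two-exponential decays to obtain kobs. kcat and KM were derived through weighted Michaelis–Menten fits across concentrations.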

In data set [2] the parent is B1. The experiment in a line: KM; higher = weaker cofactor use; RNA array. An outline of the steps: as §1
Variants of B1 are the subject of data set [3]. The experiment in a line: self-cleavage kobs at 40 uM GlcN6P; higher = faster cleavage; RNA array. The essentials:
as §1

The variants in data set [4] derive from B1. The experiment in a line: self-cleavage kobs at 160 uM GlcN6P; higher = faster cleavage; RNA array. The essentials: as §1
The variants in data set [5] derive from B1. The experiment in a line: self-cleavage kobs at 640 uM GlcN6P; higher = faster cleavage; RNA array. An outline of the steps:
as §1

Data set [6] covers variants of B1. The experiment in a line: self-cleavage kobs at 2500 uM GlcN6P; higher = faster cleavage; RNA array. The essentials:
as §1

The variants in data set [7] derive from B1. The experiment in a line: self-cleavage kobs at 10000 uM GlcN6P; higher = faster cleavage; RNA array. An outline of the steps:
as §1

In the case of U47C C68U, the kcat with glucosamine-6-phosphate [1] stood at 0.00114 ± 0.0002 s⁻¹. Besides, the Michaelis constant (KM) with glucosamine-6-phosphate [2] stood at 1650 ± 540 µM. For the same variant, in the data set with glucosamine-6-phosphate [3], the “self-cleavage kobs at 40 uM GlcN6P” value stood at 3.33e-05 ± 1.2e-05 s⁻¹. Besides, the “self-cleavage kobs at 160 uM GlcN6P” value with glucosamine-6-phosphate [4] came out at 0.000149 ± 3.6e-05 s⁻¹. The “self-cleavage kobs at 640 uM GlcN6P” value with glucosamine-6-phosphate [5] is 0.000286 ± 4.6e-05 s⁻¹. In addition, the “self-cleavage kobs at 2500 uM GlcN6P” value with glucosamine-6-phosphate [6] was found to be 0.000609 ± 0.0001 s⁻¹. Besides, the “self-cleavage kobs at 10000 uM GlcN6P” value with glucosamine-6-phosphate [7] was determined as 0.00107 ± 0.00015 s⁻¹.

With U31C U54G, the kcat with glucosamine-6-phosphate [1] amounted to 0.00413 ± 0.0012 s⁻¹. Also, the KM in the data set with glucosamine-6-phosphate [2] was 1770 ± 710 µM. Also, in the data set with glucosamine-6-phosphate [3], the “self-cleavage kobs at 40 uM GlcN6P” value was 0.000143 ± 2.5e-05 s⁻¹. Further, the “self-cleavage kobs at 160 uM GlcN6P” value with glucosamine-6-phosphate [4] turned out to be 0.000283 ± 4.9e-05 s⁻¹. Besides, the “self-cleavage kobs at 640 uM GlcN6P” value with glucosamine-6-phosphate [5] was found to be 0.00116 ± 0.00017 s⁻¹. The “self-cleavage kobs at 2500 uM GlcN6P” value with glucosamine-6-phosphate [6] amounted to 0.00211 ± 0.0004 s⁻¹. Also, the “self-cleavage kobs at 10000 uM GlcN6P” value with glucosamine-6-phosphate [7] is 0.00388 ± 0.00065 s⁻¹.

Take A6C U54A: in the data set with glucosamine-6-phosphate [1], the turnover number (kcat) stood at 0.000158 ± 2.8e-05 s⁻¹. Also, the Michaelis constant (KM) in the data set with glucosamine-6-phosphate [2] amounted to 6600 ± 2300 µM. Besides, the “self-cleavage kobs at 2500 uM GlcN6P” value with glucosamine-6-phosphate [6] stood at 4.87e-05 ± 1.5e-05 s⁻¹. Moreover, the “self-cleavage kobs at 10000 uM GlcN6P” value with glucosamine-6-phosphate [7] amounted to 9.38e-05 ± 1.7e-05 s⁻¹.

In the case of C34G C61G, the kcat with glucosamine-6-phosphate [1] was under 1e-05 s⁻¹. In addition, in the data set with glucosamine-6-phosphate [3], the “self-cleavage kobs at 40 uM GlcN6P” value is under 1e-05 s⁻¹. In addition, in the data set with glucosamine-6-phosphate [5], the “self-cleavage kobs at 640 uM GlcN6P” value was under 1e-05 s⁻¹.

Regarding U30G C70A, the kcat with glucosamine-6-phosphate [1] stood at 6.7e-05 ± 4.4e-06 s⁻¹. In addition, the KM with glucosamine-6-phosphate [2] was 410 ± 130 µM. The “self-cleavage kobs at 640 uM GlcN6P” value with glucosamine-6-phosphate [5] is 3.81e-05 ± 9.7e-06 s⁻¹. Also, the “self-cleavage kobs at 2500 uM GlcN6P” value with glucosamine-6-phosphate [6] came out at 6.45e-05 ± 9.7e-06 s⁻¹. Besides, in the data set with glucosamine-6-phosphate [7], the “self-cleavage kobs at 10000 uM GlcN6P” value worked out at 6.09e-05 ± 8.7e-06 s⁻¹.

In the case of U47A U54A U65C, in the data set with glucosamine-6-phosphate [1], the catalytic constant (kcat) is 0.00046 ± 0.0001 s⁻¹. For the same variant, the KM with glucosamine-6-phosphate [2] was 1750 ± 700 µM. In addition, in the data set with glucosamine-6-phosphate [5], the “self-cleavage kobs at 640 uM GlcN6P” value was 0.000114 ± 2.7e-05 s⁻¹. Moreover, the “self-cleavage kobs at 2500 uM GlcN6P” value with glucosamine-6-phosphate [6] was 0.000387 ± 0.0001 s⁻¹. Moreover, in the data set with glucosamine-6-phosphate [7], the “self-cleavage kobs at 10000 uM GlcN6P” value was 0.000358 ± 8.9e-05 s⁻¹.

Turning to A14C U31A A64C, in the data set with glucosamine-6-phosphate [1], the kcat worked out at 1.75e-05 ± 3.8e-06 s⁻¹. In the data set with glucosamine-6-phosphate [4], the “self-cleavage kobs at 160 uM GlcN6P” value was under 1e-05 s⁻¹.

As for A12U C58U, the kcat with glucosamine-6-phosphate [1] came to 7.97e-05 ± 5.4e-06 s⁻¹. Moreover, the KM with glucosamine-6-phosphate [2] was 662 ± 220 µM. Also, the “self-cleavage kobs at 40 uM GlcN6P” value with glucosamine-6-phosphate [3] is under 1e-05 s⁻¹. Also, the “self-cleavage kobs at 640 uM GlcN6P” value with glucosamine-6-phosphate [5] stood at 4.45e-05 ± 1.4e-05 s⁻¹. Also, the “self-cleavage kobs at 2500 uM GlcN6P” value with glucosamine-6-phosphate [6] amounted to 5.86e-05 ± 9.3e-06 s⁻¹. Besides, the “self-cleavage kobs at 10000 uM GlcN6P” value with glucosamine-6-phosphate [7] amounted to 7.81e-05 ± 1.1e-05 s⁻¹.

As for A12C C61U, the turnover number (kcat) with glucosamine-6-phosphate [1] came to 1.24e-05 ± 3.6e-06 s⁻¹. Besides, in the data set with glucosamine-6-phosphate [3], the “self-cleavage kobs at 40 uM GlcN6P” value is under 1e-05 s⁻¹.

Take A12C G13C: the catalytic constant (kcat) with glucosamine-6-phosphate [1] was determined as 6.35e-05 ± 2.1e-06 s⁻¹. Also, the KM with glucosamine-6-phosphate [2] was 1030 ± 240 µM. Besides, the “self-cleavage kobs at 2500 uM GlcN6P” value with glucosamine-6-phosphate [6] was determined as 4.89e-05 ± 2.3e-05 s⁻¹. In addition, the “self-cleavage kobs at 10000 uM GlcN6P” value with glucosamine-6-phosphate [7] was determined as 5.73e-05 ± 7.8e-06 s⁻¹.

Take A48U C67A: the kcat with glucosamine-6-phosphate [1] worked out at 0.000213 ± 8.2e-05 s⁻¹. Also, the “self-cleavage kobs at 640 uM GlcN6P” value in the data set with glucosamine-6-phosphate [5] was determined as 0.00012 ± 1.5e-05 s⁻¹. The “self-cleavage kobs at 2500 uM GlcN6P” value in the data set with glucosamine-6-phosphate [6] amounted to 0.000105 ± 2.4e-05 s⁻¹. The “self-cleavage kobs at 10000 uM GlcN6P” value with glucosamine-6-phosphate [7] stood at 0.000298 ± 4.3e-05 s⁻¹.

For the variant G40C A53U, the kcat in the data set with glucosamine-6-phosphate [1] is 0.00427 ± 0.00097 s⁻¹. Moreover, the Michaelis constant (KM) in the data set with glucosamine-6-phosphate [2] is 2570 ± 870 µM. Besides, the “self-cleavage kobs at 40 uM GlcN6P” value with glucosamine-6-phosphate [3] worked out at 8.31e-05 ± 9.2e-06 s⁻¹. Besides, in the data set with glucosamine-6-phosphate [4], the “self-cleavage kobs at 160 uM GlcN6P” value turned out to be 0.000241 ± 5.8e-05 s⁻¹. The “self-cleavage kobs at 640 uM GlcN6P” value with glucosamine-6-phosphate [5] turned out to be 0.000607 ± 0.00011 s⁻¹. The “self-cleavage kobs at 2500 uM GlcN6P” value in the data set with glucosamine-6-phosphate [6] was found to be 0.00226 ± 0.00037 s⁻¹. Moreover, in the data set with glucosamine-6-phosphate [7], the “self-cleavage kobs at 10000 uM GlcN6P” value worked out at 0.0035 ± 0.00035 s⁻¹.

For C11A G60C, the kcat with glucosamine-6-phosphate [1] was under 1e-05 s⁻¹. Further, the “self-cleavage kobs at 160 uM GlcN6P” value in the data set with glucosamine-6-phosphate [4] is under 1e-05 s⁻¹.

For the variant G37A G44U A53U, the kcat in the data set with glucosamine-6-phosphate [1] is 9.52e-05 ± 3e-05 s⁻¹. Further, the “self-cleavage kobs at 2500 uM GlcN6P” value with glucosamine-6-phosphate [6] is 6.43e-05 ± 1.9e-05 s⁻¹. For the same variant, in the data set with glucosamine-6-phosphate [7], the “self-cleavage kobs at 10000 uM GlcN6P” value is 7.31e-05 ± 2.3e-05 s⁻¹.

Turning to C11A G37A, in the data set with glucosamine-6-phosphate [1], the turnover number (kcat) was under 1e-05 s⁻¹.

As to G29U U54G, in the data set with glucosamine-6-phosphate [1], the turnover number (kcat) turned out to be 0.00305 ± 0.00096 s⁻¹. Further, the Michaelis constant (KM) in the data set with glucosamine-6-phosphate [2] was found to be 1760 ± 820 µM. Further, in the data set with glucosamine-6-phosphate [3], the “self-cleavage kobs at 40 uM GlcN6P” value was found to be 7.25e-05 ± 1.3e-05 s⁻¹. Besides, in the data set with glucosamine-6-phosphate [4], the “self-cleavage kobs at 160 uM GlcN6P” value is 0.000223 ± 4.1e-05 s⁻¹. Besides, in the data set with glucosamine-6-phosphate [5], the “self-cleavage kobs at 640 uM GlcN6P” value amounted to 0.00114 ± 0.00016 s⁻¹. Further, in the data set with glucosamine-6-phosphate [6], the “self-cleavage kobs at 2500 uM GlcN6P” value amounted to 0.0013 ± 0.00024 s⁻¹. Moreover, the “self-cleavage kobs at 10000 uM GlcN6P” value in the data set with glucosamine-6-phosphate [7] amounted to 0.00321 ± 0.00046 s⁻¹.

Consider U45G U65C, for which, in the data set with glucosamine-6-phosphate [1], the kcat is 9.08e-05 ± 1.1e-05 s⁻¹. Moreover, in the data set with glucosamine-6-phosphate [2], the Michaelis-Menten constant (KM) was 3060 ± 1100 µM. Besides, the “self-cleavage kobs at 2500 uM GlcN6P” value with glucosamine-6-phosphate [6] worked out at 4.24e-05 ± 1.4e-05 s⁻¹. The “self-cleavage kobs at 10000 uM GlcN6P” value with glucosamine-6-phosphate [7] was determined as 6.91e-05 ± 1.3e-05 s⁻¹.

Usually kcat stands for the maximal rate divided by the concentration of active sites. As usually defined, the KM is the concentration of substrate that gives half-maximal velocity.
